The Immune Epitope Database (IEDB)

Key:
[1] = target: HLA-A*23:01; experiment: IEDB peptide-MHC binding, purified MHC/direct/fluorescence; filed as Kd, often an IC50 or EC50 that approximates it; ≥ and ≤ were set here for values at or beyond the usual limits of such assays
[2] = target: HLA-A*02:12; experiment: as above
[3] = target: HLA-A*02:03; experiment: as above
[4] = target: HLA-A*02:16; experiment: as above
[5] = target: HLA-A*02:19; experiment: as above
[6] = target: HLA-A*68:02; experiment: as above
[7] = target: HLA-A*24:03; experiment: as above
[8] = target: HLA-A*11:01; experiment: as above
[9] = target: HLA-A*02:11; experiment: as above
[10] = target: HLA-B*27:03; experiment: IEDB peptide-MHC binding, purified MHC/competitive/fluorescence; filed as Kd, often an IC50 or EC50 that approximates it; ≥ and ≤ were set here for values at or beyond the usual limits of such assays
[11] = target: HLA-B*18:01; experiment: as above
[12] = target: HLA-A*69:01; experiment: as above
[13] = target: HLA-B*51:01; experiment: as above
[14] = target: HLA-B*57:01; experiment: as above
[15] = target: HLA-A*02:01; experiment: as above
[16] = target: HLA-B*46:01; experiment: as above
[17] = target: HLA-B*39:01; experiment: as above
[18] = target: HLA-A*26:01; experiment: as above
[19] = target: HLA-A*31:01; experiment: as above
[20] = target: HLA-B*15:03; experiment: IEDB peptide-MHC binding, purified MHC/competitive/radioactivity; filed as Kd, often an IC50 or EC50 that approximates it; ≥ and ≤ were set here for values at or beyond the usual limits of such assays
[21] = target: HLA-A*32:01; experiment: as above
[22] = target: HLA-B*08:01; experiment: as above
[23] = target: HLA-B*15:01; experiment: as above
[24] = target: HLA-A*30:01; experiment: as above
[25] = target: HLA-A*03:01; experiment: IEDB peptide-MHC binding, purified MHC/direct/fluorescence; filed as Kd, often an IC50 or EC50 that approximates it; ≥ and ≤ were set here for values at or beyond the usual limits of such assays
[26] = target: HLA-A*03:01; experiment: IEDB peptide-MHC binding, purified MHC/competitive/fluorescence; filed as Kd, often an IC50 or EC50 that approximates it; ≥ and ≤ were set here for values at or beyond the usual limits of such assays
[27] = target: HLA-B*15:17; experiment: as above
[28] = target: HLA-A*29:02; experiment: IEDB peptide-MHC binding, purified MHC/direct/fluorescence; filed as Kd, often an IC50 or EC50 that approximates it; ≥ and ≤ were set here for values at or beyond the usual limits of such assays
[29] = target: HLA-B*15:01; experiment: IEDB peptide-MHC binding, purified MHC/competitive/fluorescence; filed as Kd, often an IC50 or EC50 that approximates it; ≥ and ≤ were set here for values at or beyond the usual limits of such assays
[30] = target: HLA-A*01:01; experiment: IEDB peptide-MHC binding, purified MHC/direct/fluorescence; filed as Kd, often an IC50 or EC50 that approximates it; ≥ and ≤ were set here for values at or beyond the usual limits of such assays; details: source organism: Reston ebolavirus
[31] = source organism: Vibrio vulnificus YJ016
[32] = source organism: dengue virus type 1
[33] = source organism: Vaccinia virus WR
[34] = source organism: Listeria welshimeri serovar 6b str. SLCC5334
[35] = source organism: Vaccinia virus Copenhagen
[36] = source organism: Toxoplasma gondii
[37] = source organism: Entamoeba histolytica HM-1:IMSS
[38] = source organism: Reston ebolavirus
[39] = source organism: Escherichia coli 536
[40] = source organism: Zaire ebolavirus
[41] = source organism: Burkholderia mallei
[42] = source organism: Encephalitozoon cuniculi GB-M1

Sequence TSCAPMMQK has a Kd [1, 31] of at least 20 µM, a Kd [2, 31] of at least 20 µM and a Kd [3, 31] of at least 20 µM. The Kd [4, 31] was at least 20 µM, the Kd [5, 31] was at least 20 µM and the Kd [6, 31] was at least 20 µM. The Kd [7, 31] was at least 20 µM, the Kd [8, 31] was 0.006 µM and the Kd [9, 31] was at least 20 µM. For the same sequence, the Kd [10, 31] was at least 20 µM, the Kd [11, 31] was at least 20 µM and the Kd [12, 31] was at least 20 µM. For the same sequence, the Kd [13, 31] was at least 20 µM, the Kd [14, 31] was at least 20 µM and the Kd [15, 31] was at least 20 µM. The Kd [16, 31] was at least 20 µM, the Kd [17, 31] was at least 20 µM and the Kd [18, 31] was at least 20 µM.

SSADLSLEK showed a Kd [8, 32] of 0.0027 µM and a Kd [19, 32] of at least 20 µM.

Work on SKFVYVSVM yielded a Kd [20, 33] of 1.63 nM.

In the case of KVKDLFNTK, the Kd [21, 33] is reported as 2.48 µM, the Kd [22, 33] is reported as at least 42 µM and the Kd [23, 33] is reported as 4.46 µM. For the same sequence, the Kd [20, 33] was at least 22100 nM and the Kd [24, 33] was 0.0377 µM.

Sequence GVALRSTYR has a Kd ([25]; source organism: Mycobacterium tuberculosis) of 1.81 µM and a Kd ([19]; source organism: Mycobacterium tuberculosis H37Ra) of 0.0093 µM.

FMAYTTSHI gave a Kd [23, 33] of 0.132 µM and a Kd [20, 33] of 7.58 nM.

KVGHVGLYR was tested, and the Kd [19, 34] was 0.0196 µM and the Kd [26, 34] was 0.046 µM.

In the case of ISVLTGSSI, the Kd [21, 35] is reported as 3.91 µM, the Kd [22, 35] is reported as at least 20.6 µM and the Kd [23, 35] is reported as 0.0343 µM. It also gave a Kd [20, 35] of 24.9 nM and a Kd [24, 35] of 3.22 µM.

Work on KKYNNDKSF yielded a Kd [21, 33] of 11.4 µM, a Kd [22, 33] of 3.82 µM and a Kd [23, 33] of 6.62 µM. The Kd [20, 33] was 0.0778 nM and the Kd [24, 33] was at least 20.3 µM.

With VLDCRTAFK the Kd ([8]; source organism: Yellow fever virus 17D) was 0.109 µM and the Kd ([19]; source organism: Yellow fever virus) was 0.772 µM.

VSSHKGWAK gave a Kd [1, 36] of at least 20 µM, a Kd [2, 36] of at least 20 µM and a Kd [3, 36] of at least 20 µM. The Kd [4, 36] was at least 20 µM, the Kd [5, 36] was at least 20 µM and the Kd [6, 36] was at least 20 µM. For the same sequence, the Kd [7, 36] was at least 20 µM, the Kd [25, 36] was at least 20 µM and the Kd [8, 36] was 0.002 µM. For the same sequence, the Kd [9, 36] was at least 20 µM, the Kd [10, 36] was at least 20 µM and the Kd [12, 36] was at least 20 µM. The Kd [27, 36] was at least 20 µM, the Kd [13, 36] was at least 20 µM and the Kd [14, 36] was at least 20 µM. For the same sequence, the Kd [15, 36] was at least 20 µM, the Kd [16, 36] was at least 20 µM and the Kd [17, 36] was at least 20 µM. The Kd [18, 36] was at least 20 µM.

In the case of QYQNEINYL, the Kd [1, 37] is reported as 0.002 µM and the Kd [7, 37] is reported as 0.003 µM.

For AILSLNLRI, the Kd [21, 33] was 0.151 µM, the Kd [22, 33] was 1.28 µM and the Kd [23, 33] was 0.142 µM. It also gave a Kd [20, 33] of 237 nM and a Kd [24, 33] of 0.155 µM.

For RTYSLLNRK, the Kd [1, 38] was at least 20 µM, the Kd [2, 38] was at least 20 µM and the Kd [3, 38] was at least 20 µM. It also gave a Kd [4, 38] of at least 20 µM, a Kd [5, 38] of at least 20 µM and a Kd [6, 38] of at least 20 µM. The Kd [7, 38] was at least 20 µM, the Kd [28, 38] was at least 20 µM and the Kd ([25]; source organism: Reston ebolavirus - Reston) was 0.144 µM. For the same sequence, the Kd [9, 38] was at least 20 µM, the Kd [19, 38] was 0.0155 µM and the Kd [10, 38] was at least 20 µM. For the same sequence, the Kd [11, 38] was at least 20 µM, the Kd [12, 38] was at least 20 µM and the Kd [27, 38] was at least 20 µM. For the same sequence, the Kd [13, 38] was at least 20 µM, the Kd [14, 38] was at least 20 µM and the Kd [15, 38] was at least 20 µM. It also gave a Kd [16, 38] of at least 20 µM, a Kd [17, 38] of at least 20 µM and a Kd [29, 38] of at least 20 µM. For the same sequence, the Kd [18, 38] was at least 20 µM.

With FLSEPYSYF the Kd [20, 33] was 29.3 nM.

LLSLEIVFF gave a Kd [23, 35] of 0.142 µM and a Kd [20, 35] of 2110 nM.

LATFTVNIF showed a Kd [20, 33] of 35.1 nM.

In the case of AVIVWLLLR, the Kd [19, 39] is reported as 0.743 µM and the Kd [26, 39] is reported as at least 20 µM.

LSDAARLFL gave a Kd [1, 40] of at least 20 µM, a Kd [2, 40] of at least 20 µM and a Kd [30] of 0.303 µM. For the same sequence, the Kd [3, 40] was at least 20 µM, the Kd [4, 40] was at least 20 µM and the Kd [5, 40] was at least 20 µM. The Kd [6, 40] was at least 20 µM, the Kd [7, 40] was at least 20 µM and the Kd [28, 40] was at least 20 µM. For the same sequence, the Kd [25, 40] was at least 20 µM, the Kd [9, 40] was at least 20 µM and the Kd [10, 40] was at least 20 µM. It also gave a Kd [11, 40] of at least 20 µM, a Kd [12, 40] of at least 20 µM and a Kd [13, 40] of at least 20 µM. It also gave a Kd [14, 40] of at least 20 µM, a Kd [15, 40] of at least 20 µM and a Kd [16, 40] of at least 20 µM. For the same sequence, the Kd [17, 40] was at least 20 µM, the Kd [29, 40] was at least 20 µM and the Kd [18, 40] was at least 20 µM.

Sequence TGHPWITFK has a Kd [25, 41] of 0.945 µM, a Kd [8, 41] of 0.116 µM and a Kd ([19]; source organism: Cupriavidus metallidurans CH34) of 0.0482 µM.

WSTSFTNIF was tested, and the Kd [20, 35] was 5.88 nM.

SIRSMSRSI showed a Kd [21, 35] of 1.36 µM, a Kd [22, 35] of 0.0772 µM and a Kd [23, 35] of 0.362 µM. It also gave a Kd [20, 35] of 10300 nM and a Kd [24, 35] of 0.132 µM.

EAYCALLCK showed a Kd [1, 42] of at least 20 µM, a Kd [2, 42] of at least 20 µM and a Kd [3, 42] of at least 20 µM. The Kd [4, 42] was at least 20 µM, the Kd [5, 42] was at least 20 µM and the Kd [7, 42] was at least 20 µM. For the same sequence, the Kd [28, 42] was at least 20 µM, the Kd [25, 42] was at least 20 µM and the Kd [8, 42] was at least 20 µM. It also gave a Kd [9, 42] of at least 20 µM, a Kd [10, 42] of at least 20 µM and a Kd [11, 42] of at least 20 µM. The Kd [12, 42] was at least 20 µM, the Kd [13, 42] was at least 20 µM and the Kd [14, 42] was at least 20 µM. It also gave a Kd [15, 42] of at least 20 µM, a Kd [16, 42] of at least 20 µM and a Kd [17, 42] of at least 20 µM. It also gave a Kd [18, 42] of at least 20 µM.
